Measured values reported in patent US20210347873A1 (SHANGHAI PHARMAEXPLORER, published 2021).

Tests used:
[1] = target: hBLyS-ECD (His-tagged extracellular domain of human BLyS protein, Ala134-Leu285) (human, UniProt Q9Y275 134-285); assay: cell-based or functional assay
[2] = target: mouse BLyS protein (mouse, UniProt Q9WU72 69-309); assay: cell-based or functional assay
[3] = target: T1, human BLyS (full length, arginine to histidine at position 132) on CHO-K1 cells (human, UniProt Q9Y275 1-285); assay: flow cytometry, CHO-K1 hBLyS cells, antibody 0 nM
T1 construct: also called hBLyS; CHO-K1 hBLyS
Protocol: (§1) The medium was aspirated completely, and the cells were rinsed once with PBS buffer (purchased from Invitrogen) and then treated with cell dispersion solution (TrypLE™ Express Enzyme, purchased from Life technology) and collected. The detailed steps are as follows: the cells were rinsed once with PBS buffer, after counting, the cells were diluted to 2×10⁶ cells/ml with PBS buffer, blocked with 2% (w/w) fetal bovine serum and incubated on ice for 30 minutes. 200 μL of which per well was aliquoted into a 96-well FACS plate and centrifuged at 2000 rpm at 4° C., then each 100 μL of the lead antibodies obtained from Embodiment 1 and 2 were aliquoted into each well and incubated on ice for 1 hour. […] After centrifuged and rinsed 3 times with FACS buffer, cells were suspended with 200 μL of FACS buffer and the results were detected and analyzed by FACS (FACS Calibur, purchased from BD). It was shown in Tables 12-13 that the lead antibody could bind to human BLyS protein on the cell surface and the lead antibody could cross-react with cynomolgus BLyS. The data in the table is MFI, the average fluorescence intensity of the cell population.

[4] = target: T1, human BLyS (full length, arginine to …); assay: flow cytometry, CHO-K1 hBLyS cells, antibody 13.3 nM
Protocol: as §1

[5] = target: T1, human BLyS (full length, arginine to …); assay: flow cytometry, CHO-K1 hBLyS cells, antibody 2.67 nM
Protocol: as §1

[6] = target: T1, human BLyS (full length, arginine to …); assay: flow cytometry, CHO-K1 hBLyS cells, antibody 66.7 nM
Protocol: as §1

[7] = target: T2, cynomolgus BLyS (full length, arginine to histidine at position 132) on CHO-K1 cells (cynomolgus, UniProt Q9Y275 1-285 (human entry)); assay: flow cytometry, CHO-K1 cynoBLyS cells, antibody 0 nM
T2 construct: also called cyno BLyS; CHO-K1 cynoBLyS
T2 chain: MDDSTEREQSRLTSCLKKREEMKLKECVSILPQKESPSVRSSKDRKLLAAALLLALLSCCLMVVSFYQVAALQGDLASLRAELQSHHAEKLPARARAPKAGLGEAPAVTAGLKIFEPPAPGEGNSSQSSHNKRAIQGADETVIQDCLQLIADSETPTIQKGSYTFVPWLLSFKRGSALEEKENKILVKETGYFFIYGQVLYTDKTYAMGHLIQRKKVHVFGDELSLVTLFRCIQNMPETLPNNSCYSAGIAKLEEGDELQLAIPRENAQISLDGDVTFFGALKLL
Protocol: as §1

[8] = target: T1, human BLyS (full length, arginine to …); assay: flow cytometry, CHO-K1 hBLyS cells, antibody 0.107 nM
Protocol: as §1

[9] = target: T1, human BLyS (full length, arginine to …); assay: flow cytometry, CHO-K1 hBLyS cells, antibody 0.534 nM
Protocol: as §1

[10] = target: T1, human BLyS (full length, arginine to …); assay: flow cytometry, CHO-K1 hBLyS cells, antibody 0.0213 nM
Protocol: as §1

[11] = target: T1, human BLyS (full length, arginine to …); assay: flow cytometry, CHO-K1 hBLyS cells, antibody 0.00427 nM
Protocol: as §1

[12] = target: T2, cynomolgus BLyS (full length, arginine …); assay: flow cytometry, CHO-K1 cynoBLyS cells, antibody 13.3 nM
Protocol: as §1

[13] = target: T2, cynomolgus BLyS (full length, arginine …); assay: flow cytometry, CHO-K1 cynoBLyS cells, antibody 2.67 nM
Protocol: as §1

[14] = target: T2, cynomolgus BLyS (full length, arginine …); assay: flow cytometry, CHO-K1 cynoBLyS cells, antibody 66.7 nM
Protocol: as §1

[15] = target: T2, cynomolgus BLyS (full length, arginine …); assay: flow cytometry, CHO-K1 cynoBLyS cells, antibody 0.107 nM
Protocol: as §1

[16] = target: T2, cynomolgus BLyS (full length, arginine …); assay: flow cytometry, CHO-K1 cynoBLyS cells, antibody 0.534 nM
Protocol: as §1

[17] = target: T2, cynomolgus BLyS (full length, arginine …); assay: flow cytometry, CHO-K1 cynoBLyS cells, antibody 0.0213 nM
Protocol: as §1

[18] = target: T2, cynomolgus BLyS (full length, arginine …); assay: flow cytometry, CHO-K1 cynoBLyS cells, antibody 0.00427 nM
Protocol: as §1

Sequence of mouse BLyS protein (Q9WU72 69-309): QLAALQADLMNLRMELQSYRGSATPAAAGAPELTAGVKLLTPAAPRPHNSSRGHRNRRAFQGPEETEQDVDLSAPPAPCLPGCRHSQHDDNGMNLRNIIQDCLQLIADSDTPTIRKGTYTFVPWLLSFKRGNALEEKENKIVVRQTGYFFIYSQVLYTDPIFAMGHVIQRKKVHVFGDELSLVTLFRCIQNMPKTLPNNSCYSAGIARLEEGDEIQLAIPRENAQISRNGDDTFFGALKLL
T1 sequence (Q9Y275 whole entry R130H): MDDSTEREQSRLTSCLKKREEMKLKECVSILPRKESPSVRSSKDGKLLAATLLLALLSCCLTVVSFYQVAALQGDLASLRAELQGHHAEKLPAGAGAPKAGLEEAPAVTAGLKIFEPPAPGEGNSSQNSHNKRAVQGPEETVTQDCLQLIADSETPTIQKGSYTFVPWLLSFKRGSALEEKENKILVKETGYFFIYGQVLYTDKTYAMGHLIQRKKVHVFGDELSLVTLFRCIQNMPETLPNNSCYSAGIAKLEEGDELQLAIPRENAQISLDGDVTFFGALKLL

B1: 89A2G5E7 (antibody, V domains shown)
VH: QVQLKESGPGLVAPSQSLSITCTVSGLSLNSHDISWIRQPPGKGLEWLGVIWSGGGTKYNSAFMSRLSISKDNSKSQVFLKMNSLHTDDTAIYYCVRTPSMITYSAMDYWGQGTSVTVSS
VL: EIVLTQSPALMAASPGEKVTITCSVSSSISSRNLHWYQQKSQTSPKAWIHATSNLASGVPVRFSGSGSGTSYSLTISSMEAEDAATYYCQQWSSYPLTFGSGTKLEIK
notes: Mouse hybridoma monoclonal antibody purified on Protein G
Which “mouse B lymphocyte proliferation (OD450 nm), antibody 0 nM” value [1] does the source give for B1 here?
The value was 3440 OD450 nm.

What about the “mouse B lymphocyte proliferation (OD450 nm), antibody 0.000256 nM” value [1] of the same binder?
The value was 3120 OD450 nm.

What about the “mouse B lymphocyte proliferation (OD450 nm), antibody 0.00128 nM” value [1] of the same binder?
The value was 3700 OD450 nm.

And the “mouse B lymphocyte proliferation (OD450 nm), antibody 0.0064 nM” value [1]?
Its value is 3700 OD450 nm.

What about the “mouse B lymphocyte proliferation (OD450 nm), antibody 0.032 nM” value [1] of the same binder?
Its value is 3360 OD450 nm.

What about the “mouse B lymphocyte proliferation (OD450 nm), antibody 0.16 nM” value [1] of the same binder?
Its value is 3270 OD450 nm.

And the “mouse B lymphocyte proliferation (OD450 nm), antibody 0.8 nM” value [1]?
Its value is 530 OD450 nm.

And the “mouse B lymphocyte proliferation (OD450 nm), antibody 4 nM” value [1]?
Its value is 431 OD450 nm.

And the “mouse B lymphocyte proliferation (OD450 nm), antibody 20 nM” value [1]?
The value was 433 OD450 nm.

What about the “mouse B lymphocyte proliferation (OD450 nm), antibody 100 nM” value [1] of the same binder?
The value was 414 OD450 nm.

And the “mouse B lymphocyte proliferation (OD450 nm), antibody 0 nM” value [2]?
The value was 2090 OD450 nm.

What about the “mouse B lymphocyte proliferation (OD450 nm), antibody 0.000256 nM” value [2] of the same binder?
Its value is 2170 OD450 nm.

What about the “mouse B lymphocyte proliferation (OD450 nm), antibody 0.00128 nM” value [2] of the same binder?
Its value is 2270 OD450 nm.

What about the “mouse B lymphocyte proliferation (OD450 nm), antibody 0.0064 nM” value [2] of the same binder?
The value was 2170 OD450 nm.

And the “mouse B lymphocyte proliferation (OD450 nm), antibody 0.032 nM” value [2]?
The value was 2390 OD450 nm.

What about the “mouse B lymphocyte proliferation (OD450 nm), antibody 0.16 nM” value [2] of the same binder?
Its value is 2370 OD450 nm.

And the “mouse B lymphocyte proliferation (OD450 nm), antibody 0.8 nM” value [2]?
Its value is 2640 OD450 nm.

And the “mouse B lymphocyte proliferation (OD450 nm), antibody 4 nM” value [2]?
The value was 2480 OD450 nm.

What about the “mouse B lymphocyte proliferation (OD450 nm), antibody 20 nM” value [2] of the same binder?
Its value is 2640 OD450 nm.

What about the “mouse B lymphocyte proliferation (OD450 nm), antibody 100 nM” value [2] of the same binder?
The value was 2480 OD450 nm.

And the MFI [3]?
Its MFI is 31 MFI.

And the MFI [4]?
The MFI was 406 MFI.

What about the MFI [5] of the same binder?
The MFI was 374 MFI.

What about the MFI [6] of the same binder?
The MFI was 431 MFI.

What about the MFI [7] of the same binder?
The MFI was 21.2 MFI.

What about the MFI [8] of the same binder?
The MFI was 92.1 MFI.

What about the MFI [9] of the same binder?
The MFI was 192 MFI.

And the MFI [10]?
The MFI was 48.1 MFI.

And the MFI [11]?
Its MFI is 37 MFI.

And the MFI [12]?
Its MFI is 829 MFI.

What about the MFI [13] of the same binder?
The MFI was 726 MFI.

And the MFI [14]?
The MFI was 884 MFI.

And the MFI [15]?
The MFI was 125 MFI.

What about the MFI [16] of the same binder?
The MFI was 355 MFI.

And the MFI [17]?
The MFI was 53.6 MFI.

What about the MFI [18] of the same binder?
The MFI was 32.1 MFI.
